Data set [1] concerns HeLa Kyoto. As to the kind of experiment: melting temperature (median over replicates), in situ; higher = more thermally stable.
For data set [2], the system named is HeLa Kyoto. As to the kind of experiment: solubility change mitosis vs G1/S (difference of NP-40 vs SDS log2 ratios) (log2 ratio difference); higher = more soluble in mitosis.
The subject of data set [3] is HeLa Kyoto. Briefly: thermal stability score vs G1/S (z-score of summed log2 fold changes over temperatures); higher = more thermally stable than in G1/S.
Data set [4] has as its system HeLa Kyoto. As to the kind of experiment: solubility in G1/S (NP-40 vs SDS abundance) (log2 ratio); higher = more soluble. The conditions noted are these: cell cycle stage: G1/S.
Where [5] appears, read: cell cycle stage: early G1 (4.5 h after nocodazole release).
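For melting temperature (median over replicates), in situ in this document: HeLa Kyoto cells synchronized by double thymidine or nocodazole block, proteins quantified by TMT10plex mass spectrometry, three independent biological replicates.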
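For solubility change mitosis vs G1/S (difference of NP-40 vs SDS log2 ratios) in this document: synchronized HeLa Kyoto cells (double thymidine block for G1/S, nocodazole release for mitosis), protein amounts in NP-40 versus SDS lysates quantified by mass spectrometry, three biological replicates.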
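For solubility in G1/S (NP-40 vs SDS abundance) in this document: HeLa Kyoto cells arrested at G1/S by double thymidine block, proteins quantified by TMT10plex mass spectrometry in mild NP-40 versus SDS extracts, three biological replicates.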
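For thermal stability score vs G1/S (z-score of summed log2 fold changes over temperatures) in this document: synchronized HeLa Kyoto cells, proteins quantified by TMT10plex mass spectrometry, three biological replicates, mitosis taken 0.5 h after nocodazole release, G1/S directly after double thymidine block.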

As to “MSFLQDPSFFTMGMWSIGAGALGAAALALLLANTDVFLSKPQKAALEYLEDIDLKTLEKEPRTFKAKELWEKNGAVIMAVRRPGCFLCREEAADLSSLKSMLDQLGVPLYAVVKEHIRTEVKDFQPYFKGEIFLDEKKKFYGPQRRKMMFMGFIRLGVWYNFFRAWNGGFSGNLEGEGFILGGVFVVGSGKQGILLEHREKEFGDKVNLLSVLEAAKMIKPQTLASEKK [FAM213A]”, the melting temperature is 56.6 °C in the data set with HeLa Kyoto [1] (cell cycle stage: G1/S) and 55.5 °C in the data set on HeLa Kyoto [1] (cell cycle stage: mitosis). The “solubility change mitosis (log2)” value with HeLa Kyoto [2] is -0.0729. The figures for the thermal stability score in the data set with HeLa Kyoto [3] (setting [5]) and in the data set with HeLa Kyoto [3] (cell cycle stage: mitosis) were -0.538 and -0.108, respectively. The “solubility in G1/S (log2)” value in the data set on HeLa Kyoto [4] is -0.0704.

On to “MSFSRALLWARLPAGRQAGHRAAICSALRPHFGPFPGVLGQVSVLATASSSASGGSKIPNTSLFVPLTVKPQGPSADGDVGAELTRPLDKNEVKKVLDKFYKRKEIQKLGADYGLDARLFHQAFISFRNYIMQSHSLDVDIHIVLNDICFGAAHADDLFPFFLRHAKQIFPVLDCKDDLRKISDLRIPPNWYPDARAMQRKIIFHSGPTNSGKTYHAIQKYFSAKSGVYCGPLKLLAHEIFEKSNAAGVPCDLVTGEERVTVQPNGKQASHVSCTVEMCSVTTPYEVAVIDEIQMIRDPARGWAWTRALLGLCAEEVHLCGEPAAIDLVMELMYTTGEEVEVRDYKRLTPISVLDHALESLDNLRPGDCIVCFSKNDIYSVSRQIEIRGLESAVIYGSLPPGTKLAQAKKFNDPNDPCKILVATDAIGMGLNLSIRRIIFYSLIKPSINEKGERELEPITTSQALQIAGRAGRFSSRFKEGEVTTMNHEDLSLLKEILKRPVDPIRAAGLHPTAEQIEMFAYHLPDATLSNLIDIFVDFSQVDGQYFVCNMDDFKFSAELIQHIPLSLRVRYVFCTAPINKKQPFVCSSLLQFARQYSRNEPLTFAWLRRYIKWPLLPPKNIKDLMDLEAVHDVLDLYLWLSYRFMDMFPDASLIRDLQKELDGIIQDGVHNITKLIKMSETHKLLNLEGFPSGSQSRLSGTLKSQARRTRGTKALGSKATEPPSPDAGELSLASRLVQQGLLTPDMLKQLEKEWMTQQTEHNKEKTESGTHPKGTRRKKKEPDSD [SUPV3L1]”, for which the melting temperature in the data set on HeLa Kyoto [1] (cell cycle stage: G1/S) came to 51.4 °C; with HeLa Kyoto [1] (cell cycle stage: mitosis), 51.5 °C. Besides, the “solubility change mitosis (log2)” value in the data set on HeLa Kyoto [2] was -0.0848. Moreover, the figures for the thermal stability score in the data set on HeLa Kyoto [3] (setting [5]) and in the data set with HeLa Kyoto [3] (cell cycle stage: mitosis) were 0.374 and 0.138, respectively. In the data set with HeLa Kyoto [4], the “solubility in G1/S (log2)” value is -0.0284.

For the sequence “MSGCDAREGDCCSRRCGAQDKEHPRYLIPELCKQFYHLGWVTGTGGGISLKHGDEIYIAPSGVQKERIQPEDMFVCDINEKDISGPSPSKKLKKSQCTPLFMNAYTMRGAGAVIHTHSKAAVMATLLFPGREFKITHQEMIKGIKKCTSGGYYRYDDMLVVPIIENTPEEKDLKDRMAHAMNEYPDSCAVLVRRHGVYVWGETWEKAKTMCECYDYLFDIAVSMKKVGLDPSQLPVGENGIV [APIP]”, the melting temperature was determined as 59.3 °C in the data set on HeLa Kyoto [1] (cell cycle stage: G1/S) and 57.6 °C with HeLa Kyoto [1] (cell cycle stage: mitosis). Besides, the “solubility change mitosis (log2)” value in the data set with HeLa Kyoto [2] is -0.078. Also, the thermal stability score with HeLa Kyoto [3] (setting [5]) is -1.32; in the data set with HeLa Kyoto [3] (cell cycle stage: mitosis), -2.26. The “solubility in G1/S (log2)” value with HeLa Kyoto [4] worked out at 0.253.

As to “MSGCRVFIGRLNPAAREKDVERFFKGYGRIRDIDLKRGFGFVEFEDPRDADDAVYELDGKELCSERVTIEHARARSRGGRGRGRYSDRFSSRRPRNDRRNAPPVRTENRLIVENLSSRVSWQDLKDFMRQAGEVTFADAHRPKLNEGVVEFASYGDLKNAIEKLSGKEINGRKIKLIEGSKRHSRSRSRSRSRTRSSSRSRSRSRSRSRKSYSRSRSRSRSRSRSKSRSVSRSPVPEKSQKRGSSSRSKSPASVDRQRSRSRSRSRSVDSGN [SRSF5]”, the melting temperature in the data set with HeLa Kyoto [1] (cell cycle stage: G1/S) turned out to be 51.3 °C; with HeLa Kyoto [1] (cell cycle stage: mitosis), 51.5 °C. The “solubility change mitosis (log2)” value in the data set with HeLa Kyoto [2] was 0.302. For the same sequence, the thermal stability score is 1.65 with HeLa Kyoto [3] (setting [5]) and -4.18 with HeLa Kyoto [3] (cell cycle stage: mitosis). Moreover, in the data set with HeLa Kyoto [4], the “solubility in G1/S (log2)” value was -0.33.

With “MSGDGATEQAAEYVPEKVKKAEKKLEENPYDLDAWSILIREAQNQPIDKARKTYERLVAQFPSSGRFWKLYIEAEIKAKNYDKVEKLFQRCLMKVLHIDLWKCYLSYVRETKGKLPSYKEKMAQAYDFALDKIGMEIMSYQIWVDYINFLKGVEAVGSYAENQRITAVRRVYQRGCVNPMINIEQLWRDYNKYEEGINIHLAKKMIEDRSRDYMNARRVAKEYETVMKGLDRNAPSVPPQNTPQEAQQVDMWKKYIQWEKSNPLRTEDQTLITKRVMFAYEQCLLVLGHHPDIWYEAAQYLEQSSKLLAEKGDMNNAKLFSDEAANIYERAISTLLKKNMLLYFAYADYEESRMKYEKVHSIYNRLLAIEDIDPTLVYIQYMKFARRAEGIKSGRMIFKKAREDTRTRHHVYVTAALMEYYCSKDKSVAFKIFELGLKKYGDIPEYVLAYIDYLSHLNEDNNTRVLFERVLTSGSLPPEKSGEIWARFLAFESNIGDLASILKVEKRRFTAFKEEYEGKETALLVDRYKFMDLYPCSASELKALGYKDVSRAKLAAIIPDPVVAPSIVPVLKDEVDRKPEYPKPDTQQMIPFQPRHLAPPGLHPVPGGVFPVPPAAVVLMKLLPPPICFQGPFVQVDELMEIFRRCKIPNTVEEAVRIITGGAPELAVEGNGPVESNAVLTKAVKRPNEDSDEDEEKGAVVPPVHDIYRARQQKRIR [CSTF3]”, the figures for the melting temperature with HeLa Kyoto [1] (cell cycle stage: G1/S) and with HeLa Kyoto [1] (cell cycle stage: mitosis) were 52 °C and 51.9 °C, respectively. In addition, in the data set with HeLa Kyoto [2], the “solubility change mitosis (log2)” value was -0.000668. Besides, the thermal stability score in the data set with HeLa Kyoto [3] (setting [5]) is 0.26; in the data set on HeLa Kyoto [3] (cell cycle stage: mitosis) it was -0.413. Further, the “solubility in G1/S (log2)” value in the data set on HeLa Kyoto [4] was -0.0695.

As for “MSGDSSGRGPEGRGRGRDPHRDRTRSRSRSRSPLSPRSRRGSARERREAPERPSLEDTEPSDSGDEMMDPASLEAEADQGLCRQIRHQYRALINSVQQNREDILNAGDKLTEVLEEANTLFNEVSRAREAVLDAHFLVLASDLGKEKAKQLRSDLSSFDMLRYVETLLTHMGVNPLEAEELIRDEDSPDFEFIVYDSWKITGRTAENTFNKTHTFHFLLGSIYGECPVPKPRVDRPRKVPVIQEERAMPAQLRRMEESHQEATEKEVERILGLLQTYFREDPDTPMSFFDFVVDPHSFPRTVENIFHVSFIIRDGFARIRLDQDRLPVIEPVSINEENEGFEHNTQVRNQGIIALSYRDWEEIVKTFEISEPVITPSQRQQKPSA [NSMCE4A]”, the melting temperature was determined as 49.9 °C in the data set with HeLa Kyoto [1] (cell cycle stage: G1/S) and 50.2 °C in the data set on HeLa Kyoto [1] (cell cycle stage: mitosis). Further, the “solubility change mitosis (log2)” value in the data set with HeLa Kyoto [2] is 0.00196. In addition, the thermal stability score is -2.46 with HeLa Kyoto [3] (setting [5]) and -1.49 in the data set with HeLa Kyoto [3] (cell cycle stage: mitosis). Moreover, the “solubility in G1/S (log2)” value in the data set on HeLa Kyoto [4] worked out at 0.182.

As to “MSGELPPNINIKEPRWDQSTFIGRANHFFTVTDPRNILLTNEQLESARKIVHDYRQGIVPPGLTENELWRAKYIYDSAFHPDTGEKMILIGRMSAQVPMNMTITGCMMTFYRTTPAVLFWQWINQSFNAVVNYTNRSGDAPLTVNELGTAYVSATTGAVATALGLNALTKHVSPLIGRFVPFAAVAAANCINIPLMRQRELKVGIPVTDENGNRLGESANAAKQAITQVVVSRILMAAPGMAIPPFIMNTLEKKAFLKRFPWMSAPIQVGLVGFCLVFATPLCCALFPQKSSMSVTSLEAELQAKIQESHPELRRVYFNKGL [SFXN1]”, the melting temperature is 54.4 °C in the data set on HeLa Kyoto [1] (cell cycle stage: G1/S) and 54.8 °C in the data set on HeLa Kyoto [1] (cell cycle stage: mitosis). Also, the “solubility change mitosis (log2)” value in the data set on HeLa Kyoto [2] was -0.0506. Further, the thermal stability score is -0.303 in the data set on HeLa Kyoto [3] (setting [5]) and -0.959 with HeLa Kyoto [3] (cell cycle stage: mitosis). Moreover, the “solubility in G1/S (log2)” value in the data set on HeLa Kyoto [4] is 0.371.

For “MSGEPGQTSVAPPPEEVEPGSGVRIVVEYCEPCGFEATYLELASAVKEQYPGIEIESRLGGTGAFEIEINGQLVFSKLENGGFPYEKDLIEAIRRASNGETLEKITNSRPPCVIL [MIEN1]”, the melting temperature in the data set on HeLa Kyoto [1] (cell cycle stage: G1/S) was 50.8 °C; in the data set with HeLa Kyoto [1] (cell cycle stage: mitosis) it was 51.1 °C. Moreover, the “solubility change mitosis (log2)” value in the data set with HeLa Kyoto [2] was -0.0195. In addition, the thermal stability score in the data set with HeLa Kyoto [3] (setting [5]) was -1.21; in the data set with HeLa Kyoto [3] (cell cycle stage: mitosis), 0.00566. In the data set on HeLa Kyoto [4], the “solubility in G1/S (log2)” value is 0.353.

Take “MSGFDDPGIFYSDSFGGDAQADEGQARKSQLQRRFKEFLRQYRVGTDRTGFTFKYRDELKRHYNLGEYWIEVEMEDLASFDEDLADYLYKQPAEHLQLLEEAAKEVADEVTRPRPSGEEVLQDIQVMLKSDASPSSIRSLKSDMMSHLVKIPGIIIAASAVRAKATRISIQCRSCRNTLTNIAMRPGLEGYALPRKCNTDQAGRPKCPLDPYFIMPDKCKCVDFQTLKLQELPDAVPHGEMPRHMQLYCDRYLCDKVVPGNRVTIMGIYSIKKFGLTTSRGRDRVGVGIRSSYIRVLGIQVDTDGSGRSFAGAVSPQEEEEFRRLAALPNVYEVISKSIAPSIFGGTDMKKAIACLLFGGSRKRLPDGLTRRGDINLLMLGDPGTAKSQLLKFVEKCSPIGVYTSGKGSSAAGLTASVMRDPSSRNFIMEGGAMVLADGGVVCIDEFDKMREDDRVAIHEAMEQQTISIAKAGITTTLNSRCSVLAAANSVFGRWDETKGEDNIDFMPTILSRFDMIFIVKDEHNEERDVMLAKHVITLHVSALTQTQAVEGEIDLAKLKKFIAYCRVKCGPRLSAEAAEKLKNRYIIMRSGARQHERDSDRRSSIPITVRQLEAIVRIAEALSKMKLQPFATEADVEEALRLFQVSTLDAALSGTLSGVEGFTSQEDQEMLSRIEKQLKRRFAIGSQVSEHSIIKDFTKQKYPEHAIHKVLQLMLRRGEIQHRMQRKVLYRLK [MCM5]”: the melting temperature with HeLa Kyoto [1] (cell cycle stage: G1/S) was 51.9 °C; with HeLa Kyoto [1] (cell cycle stage: mitosis), 51.4 °C. For the same sequence, in the data set on HeLa Kyoto [2], the “solubility change mitosis (log2)” value was -0.0997. Moreover, the thermal stability score in the data set with HeLa Kyoto [3] (setting [5]) was found to be 1.16; in the data set on HeLa Kyoto [3] (cell cycle stage: mitosis) it was 0.714. Also, the “solubility in G1/S (log2)” value with HeLa Kyoto [4] is -0.322.

These data come from the supplement of paper PMC5998384.
